Assay: Decomposition of purine nucleosides in wort by nucleoside phosphorylase
Type: biochemical
Settings: 7 units/ml, 3 hours at 30° C., wort extract concentration 12.5%
Protocol: Nucleoside phosphorylase derived from calf spleen (Boehringer) was added to wort having an extract concentration of 12.5% to a concentration of 7 units/ml, and allowed to react for 3 hours at 30° C. The amount of purine compounds in the wort to which enzyme was added and a wort held for 3 hours at 30° C. without adding enzyme as the control were measured using the method described in Experiment 1.

B1: nucleoside phosphorylase derived from calf spleen: Nucleoside phosphorylase derived from calf spleen (Boehringer), EC 2.4.2.1 (protein, UniProt P55859 1-289, looked up)
Purine nucleoside …: MANGYTYEDYQDTAKWLLSHTEQRPQVAVICGSGLGGLVNKLTQAQTFDYSEIPNFPESTVPGHAGRLVFGILNGRACVMMQGRFHMYEGYPFWKVTFPVRVFRLLGVETLVVTNAAGGLNPNFEVGDIMLIRDHINLPGFSGENPLRGPNEERFGVRFPAMSDAYDRDMRQKAHSTWKQMGEQRELQEGTYVMLGGPNFETVAECRLLRNLGADAVGMSTVPEVIVARHCGLRVFGFSLITNKVIMDYESQGKANHEEVLEAGKQAAQKLEQFVSLLMASIPVSGHTG
decomposition ratio of each purine nucleoside: roughly 60%
